B1: HDV Ribozyme (parent)
chain: GGCCGGCAUGGUCCCAGCCUCCUCGCUGGCGCCGGCUGGGCAACAUUCCGAGGGGACCGUCCCCUCGGUAAUGGCGAAUGGGACCCA

Variants of: B1
Assay: self-cleavage, relative activity (ratio to wild type); higher = more cleavage; co-transcriptional

| Variant | self-cleavage |
| --- | --- |
| C48G A71C | 1.03 |
| U47C C85A | 0.587 |
| C48U A71U | 0.585 |
| C48U A71C | 0.789 |
| C48U G55C | 0.938 |
| U47G G74A | 0.435 |
| U47G G74C | 0.222 |
| C48G A56G | 1.03 |
| U47C U65G | 0.856 |
| U47C U65C | 0.733 |
| U47G G59C | 1.16 |
| C49A A78C | 0.116 |
| C49A G59C | 1.08 |
| C49A G59U | 0.945 |
| C49A G52U | 0.369 |
| C49A G52A | 0.739 |
| C48G A51U | 1.02 |
| C48G A51G | 0.997 |
| C48G A51C | 0.88 |
| U47G C75G | 0.317 |
| C48U C84G | 0.712 |
| C48A U79A | 0.974 |
| C48U C75G | 0.0852 |
| C48U C75U | 0.211 |

| Variant | self-cleavage |
| --- | --- |
| C49G A77G | 0.536 |
| C49G A77U | 0.604 |
| C48U C66A | 0.923 |
| C48U C66G | 0.658 |
| C48U C66U | 0.947 |
| C49G A51U | 0.554 |
| C49A U65A | 0.751 |
| C48U C63A | 0.791 |
| C48U A51C | 0.919 |
| C48U A51U | 1.07 |
| C48U A51G | 0.618 |
| C48U G53A | 0.888 |
| C48A U65C | 0.98 |
| C48A U65G | 0.954 |
| C48A G82U | 0.496 |
| C48A G82A | 0.332 |
| C48U C85G | 0.941 |
| C48A G55U | 0.933 |
| C48A G55C | 1.06 |
| C49G A87C | 0.672 |
| C48G G52U | 0.612 |
| C48A A70G | 1.11 |
| C48A A70C | 0.957 |
| U47G A70G | 1.01 |

| Variant | self-cleavage |
| --- | --- |
| U47C G59A | 0.954 |
| C49A A56U | 1.1 |
| C49A A56C | 1.05 |
| C48U G80U | 0.194 |
| U47G A87C | 1.05 |
| U47G A87G | 1.16 |
| C48U G59U | 1.06 |
| C48A G59U | 1.11 |
| C48A G59C | 1.15 |
| C48U G82U | 0.437 |
| C48U G82A | 0.532 |
| C48G G55A | 0.888 |
| C48A A87G | 0.955 |
| U47C C63G | 0.178 |
| C48G C49U | 1.08 |
| C48U A87C | 0.989 |
| C49G A71C | 0.302 |
| C48A C57A | 0.978 |
| C48A C57U | 0.76 |
| C49A C58A | 0.986 |
| C49A C58U | 1.04 |
| C49A C58G | 0.988 |
| C48U A56U | 0.987 |
| C48U U60A | 1 |

| Variant | self-cleavage |
| --- | --- |
| C48U U60G | 0.776 |
| U47G G80U | 0.163 |
| U47G G80A | 0.242 |
| U47G G80C | 0.192 |
| C48A A83G | 0.791 |
| C48A A83C | 0.317 |
| C48G C58A | 1.14 |
| C49A C84U | 0.686 |
| C49A C84G | 0.743 |
| U47C G54A | 1.04 |
| U47C G54C | 0.554 |
| C48U U65G | 0.748 |
| C48U U65C | 1.07 |
| C49A A87U | 0.857 |
| C48U C62G | 0.485 |
| C48U C62U | 1.15 |
| C48U C62A | 0.847 |
| C49A G76A | 0.991 |
| C49A G76U | 1.01 |
| C48U G74U | 0.554 |
| C48A G53A | 1.05 |
| C48A G53U | 0.915 |
| C48G A87U | 1.09 |
| C48U C61G | 0.855 |

| Variant | self-cleavage |
| --- | --- |
| C48U C61A | 0.87 |
| C48U C64G | 0.721 |
| C49A G54C | 0.843 |
| C49G A70U | 0.429 |
| C49G A70C | 0.415 |
| C48A A71G | 0.791 |
| C49A G74C | 0.0755 |
| C49A C66G | 0.96 |
| C48A C64G | 0.786 |
| C48A C64A | 0.867 |
| U47C G82U | 0.111 |
| U47C G82A | 0.401 |
| U47C G82C | 0.185 |
| C48U C57G | 0.798 |
| C48U C57U | 0.969 |
| U47G G82A | 0.59 |
| U47G G82U | 0.123 |
| C48G U79G | 0.795 |
| C48G U79C | 0.345 |
| C48A G67A | 1.04 |
| C48A G67U | 1.03 |
| C49A G50U | 0.816 |
| C49A G50A | 0.929 |
| C48U U79C | 0.45 |

| Variant | self-cleavage |
| --- | --- |
| C48G G67C | 1 |
| C48G G67U | 0.972 |
| U47G C64A | 0.875 |
| U47C G74A | 0.233 |
| C49A G68A | 0.742 |
| C48A U72A | 0.456 |
| C48A U72G | 0.525 |
| C48U G73A | 0.526 |
| C48U G73U | 0.521 |
| C48A C66G | 0.831 |
| C49A U72G | 0.443 |
| C49A U72A | 0.225 |
| C49A U72C | 0.32 |
| C48A G80C | 0.169 |
| C49A C62G | 0.128 |
| C48G G54C | 0.665 |
| C48G G54U | 0.726 |
| U47C G67U | 0.892 |
| U47C G67C | 0.59 |
| U47G U69C | 0.727 |
| C48A C62G | 0.359 |
| C48G C61A | 0.927 |
| C48G C61U | 0.876 |
| C48G C86U | 0.932 |

| Variant | self-cleavage |
| --- | --- |
| C48G G81U | 0.424 |
| C48G U72G | 0.369 |
| C48U U69G | 0.869 |
| C49A C57U | 1.15 |
| C48A C86A | 0.831 |
| C48A C86U | 0.923 |
| C49A A83C | 0.6 |
| U47C C64U | 0.692 |
| C48G G74U | 0.509 |
| C48U G50C | 0.965 |
| U47C C62U | 1.16 |
| U47C C62A | 1.06 |
| U47C C62G | 0.415 |
| U47G C63A | 1.06 |
| C48U G81C | 0.381 |
| C48U G81A | 0.308 |
| U47C C61G | 0.65 |
| U47C C61A | 0.872 |
| U47G C49A | 1.09 |
| C48U G67C | 1.01 |
| C48U G67U | 1.27 |
| C48G U60C | 0.969 |
| C48G U60G | 1.01 |
